Test [1] has as its target T1, HLA-DRB1*15∶01 (Homo sapiens, UniProt P01903+P01911).
T1 construct: expression of transmembrane-truncated versions of isolated α and in vivo biotinylated β chain molecules in E. coli; made in house
The experiment in a line: biochemical. Type of test: binding. Conditions: C-terminally H6-tagged peptide, read-out: KD (nM) HLA-DRB1*15∶01 + tag.

For test [2], the target named is T2, HLA-DRB5*01∶01 (Homo sapiens, UniProt P01903+Q30154).
T2 construct: expression of transmembrane-truncated versions of isolated α and in vivo biotinylated β chain molecules in E. coli; made in house
The experiment in a line: biochemical. Type of test: binding.

Test [3] addresses T3, HLA-DRB1*01∶01 (Homo sapiens, UniProt P01903+P01911, A100R/D57E/F55L/F60I/F76Y/I96L/L162R/M171V/P40L/Q125E/R42F/V115G/Y59C).
T3 construct: expression of transmembrane-truncated versions of isolated α and in vivo biotinylated β chain molecules in E. coli; made in house
The test can be described thus: biochemical. Type of test: binding. The following applies: C-terminally H6-tagged peptide, read-out: KD (nM) HLA-DRB1*01∶01 + tag.

Test [4] has as its target HLA-DRB1*01∶01 (recombinant HLA-DR alpha chain with FOS zipper paired with HLA-DRB1*01∶01 beta chain with JUN zipper and BSP). The test can be described thus: AlphaScreen or HTRF.
The target in test [5] is HLA-DRB1*15∶01 (recombinant HLA-DR alpha chain with FOS zipper paired with HLA-DRB1*15∶01 beta chain with JUN zipper and BSP). The experiment in a line: AlphaScreen or HTRF.
Test [6] addresses HLA-DRB5*01∶01 (recombinant HLA-DR alpha chain with FOS zipper paired with HLA-DRB5*01∶01 beta chain with JUN zipper and BSP). The experiment in a line: AlphaScreen or HTRF. A general note: Bead proximity is the source of the signal in Alpha formats.
Setting [7] is: C-terminally H6-tagged peptide, […], read-out: KD (nM) HLA-DRB5*01∶01 + tag.

Read-outs that look alike come from different tables or passages of the source. Peptide text beside a SMILES is read from it.

The Kd is the concentration at which binding is half-saturated.

For `CC(C)C[C@H](NC(=O)[C@H](CCCCN)NC(=O)[C@H](CC(C)C)NC(=O)[C@@H](NC(=O)[C@H](CC(N)=O)NC(=O)[C@H](CCC(N)=O)NC(=O)[C@H](CCCCN)NC(=O)[C@@H](NC(=O)[C@H](Cc1ccc(O)cc1)NC(=O)[C@H](CCCCN)NC(=O)[C@@H](N)Cc1ccc(O)cc1)C(C)C)[C@@H](C)O)C(=O)N[C@@H](C)C(=O)N[C@H](C(=O)N[C@@H](Cc1c[nH]cn1)C(=O)N[C@@H](Cc1c[nH]cn1)C(=O)N[C@@H](Cc1c[nH]cn1)C(=O)N[C@@H](Cc1c[nH]cn1)C(=O)N[C@@H](Cc1c[nH]cn1)C(=O)N[C@@H](Cc1c[nH]cn1)C(=O)O)[C@@H](C)O` [Influenza A HA306–318 + tag] (H-YKYVKQNTLKLATHHHHHH-OH), the Kd in test [1] came out at 345 nM; in test [2] (setting [7]) it was 17 nM.
For the compound `CC(C)C[C@H](NC(=O)[C@@H](NC(=O)[C@H](Cc1ccccc1)NC(=O)[C@@H](NC(=O)[C@H](Cc1ccccc1)NC(=O)CNC(=O)[C@@H](N)CC(C)C)C(C)C)[C@@H](C)O)C(=O)N[C@H](C(=O)N[C@H](C(=O)N1CCC[C@H]1C(=O)N[C@@H](CO)C(=O)N[C@@H](CCC(=O)O)C(=O)N[C@@H](CCCNC(=N)N)C(=O)NCC(=O)N[C@@H](Cc1c[nH]cn1)C(=O)N[C@@H](Cc1c[nH]cn1)C(=O)N[C@@H](Cc1c[nH]cn1)C(=O)N[C@@H](Cc1c[nH]cn1)C(=O)N[C@@H](Cc1c[nH]cn1)C(=O)N[C@@H](Cc1c[nH]cn1)C(=O)O)C(C)C)[C@@H](C)O` [Influenza A MP60–72 + tag] (H-LGFVFTLTVPSERGHHHHHH-OH), the Kd in test [3] is 40 nM; in test [1], 282 nM; in test [2] (setting [7]), 13 nM.
Consider `CC(C)C[C@H](NC(=O)[C@@H](NC(=O)[C@H](Cc1ccccc1)NC(=O)[C@@H](NC(=O)[C@H](Cc1ccccc1)NC(=O)CNC(=O)[C@@H](N)CC(C)C)C(C)C)[C@@H](C)O)C(=O)N[C@H](C(=O)N[C@H](C(=O)N1CCC[C@H]1C(=O)N[C@@H](CO)C(=O)N[C@@H](CCC(=O)O)C(=O)N[C@@H](CCCNC(=N)N)C(=O)NCC(=O)O)C(C)C)[C@@H](C)O` [Influenza A MP60–72, reference compound], for which, in test [2] (read-out: KD (nM) HLA-DRB5*01∶01 − tag), the Kd worked out at 7 nM.
As for “Hepatitis C (Hep C) peptide NS3_(218–235)”, the Kd in test [4] was 3 nM; in test [5], 2 nM.
As to “Hepatitis C peptide Hep C-NS3_(218–235(H6))”, the values for the Kd in test [6], in test [4] and in test [5] were 37 nM, 5 nM and 2 nM, respectively.
Take Influenza A peptide HA_(307–318(H6)): the Kd in test [6] was found to be 17 nM; in test [4], 19 nM; in test [5], 345 nM.
As to Influenza A peptide HA_(307–318), the figures for the Kd in test [6], in test [4] and in test [5] were 4 nM, 9 nM and 25 nM, respectively.
On the same counts, the results for Influenza A peptide MP_(60–73(H6)) are 13 nM, 40 nM and 282 nM.
As to Influenza A peptide MP_(60–73), the Kd in test [6] came to 7 nM; in test [4], 17 nM; in test [5] it was 270 nM.
Regarding “cytomegalovirus (CMV) peptide IE1_(211–225(H6))”, the Kd was 8 nM in test [6], 42 nM in test [4] and 127 nM in test [5].
For the compound “cytomegalovirus (CMV) peptide IE1_(211–225)”, in test [6], the Kd was 8 nM.

The values above are taken from PMC3759463 (PLoS ONE, 2013).
